Legend:
E6APD543A = target: T1, E6APD543A (Homo sapiens, UniProt Q05086, D566A); assay: E6 rescue of 125I-polyubiquitin chain formation by E6APD543A; assay type: biochemical; conditions: 20 nM E6 protein
T1 construct: made in house; host or cells: E. coli
T1 sequence (Q05086 1-872 isoform Q05086-3 D563A): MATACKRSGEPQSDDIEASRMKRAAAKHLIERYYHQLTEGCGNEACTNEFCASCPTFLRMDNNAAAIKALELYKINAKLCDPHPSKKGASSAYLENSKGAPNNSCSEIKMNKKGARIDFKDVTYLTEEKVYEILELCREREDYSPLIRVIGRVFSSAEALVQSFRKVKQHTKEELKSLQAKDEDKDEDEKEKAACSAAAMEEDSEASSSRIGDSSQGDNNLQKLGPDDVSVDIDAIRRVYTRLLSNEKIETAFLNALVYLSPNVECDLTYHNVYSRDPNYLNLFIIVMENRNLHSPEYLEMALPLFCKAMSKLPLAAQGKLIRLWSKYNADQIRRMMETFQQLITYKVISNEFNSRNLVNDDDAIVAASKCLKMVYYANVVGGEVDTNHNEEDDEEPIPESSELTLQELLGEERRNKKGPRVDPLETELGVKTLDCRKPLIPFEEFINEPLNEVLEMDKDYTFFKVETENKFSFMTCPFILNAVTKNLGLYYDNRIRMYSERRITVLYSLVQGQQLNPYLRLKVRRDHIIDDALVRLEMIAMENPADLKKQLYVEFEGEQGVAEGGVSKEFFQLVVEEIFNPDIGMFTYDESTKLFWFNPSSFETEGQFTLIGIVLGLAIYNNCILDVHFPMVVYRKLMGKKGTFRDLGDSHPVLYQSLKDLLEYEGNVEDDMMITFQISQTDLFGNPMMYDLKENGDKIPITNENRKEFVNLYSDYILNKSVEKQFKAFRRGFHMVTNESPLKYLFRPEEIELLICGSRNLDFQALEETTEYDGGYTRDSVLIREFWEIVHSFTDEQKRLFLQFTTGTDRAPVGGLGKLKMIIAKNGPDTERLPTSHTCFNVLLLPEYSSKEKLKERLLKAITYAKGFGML
Procedure: (§1) E6AP-catalyzed ^125I-Ubiquitin Conjugation Assay: The E3 ligase activity of recombinant E6AP ligase was quantitated in kinetic assays under initial velocity conditions (Ronchi et al., (2013) J. Biol. Chem. 288, 10349-10360, Ronchi & Haas (2012) Methods Mol. Biol. 832: 197-218). Rates of E6AP-catalyzed ^125I-polyubiquitin chain formation were measured at 37° C. in incubations of 25-μl final volume containing 50 mM Tris-HCl (pH 7.5), 1 mM ATP, 10 mM MgCl2, 1 mM DTT, 10 mM creatine phosphate, 1 IU of creatine phosphokinase, 5 μM ^125I-ubiquitin (approximately 1.5×10^4 cpm/pmol), 50 nM human Uba1, and the indicated concentrations of UbcH7 and E6AP ligase (Siepmann et al., (2003) J. Biol. Chem. 278: 9448-9457; Baboshina et al., (2001) J. Biol. Chem. 276: 39428-39437). […]
(§2) Polyubiquitin chain formation was measured by excising lanes between the top of the resolving gel and the top of the stacker gel, representing anchored and free ^125I-polyubiquitin chains, respectively, and quantitating associated ^125I-ubiquitin by γ-counting. Absolute rates of ^125I-polyubiquitin chain formation were calculated from the associated radioactivity and the corrected specific radioactivity for ^125I-ubiquitin. Datum points represent single assay determinations, and complete data sets were evaluated by non-linear regression analysis using GraFit version 5.0 (Erithicus). […]

E6APR626A = target: T2, E6APR626A (Homo sapiens, UniProt Q05086, R649A); assay: E6 rescue of 125I-polyubiquitin chain formation by E6APR626A; assay type: biochemical; conditions: 20 nM E6 protein
T2 construct: made in house; host or cells: E. coli
T2 sequence (Q05086 1-872 isoform Q05086-3 R646A): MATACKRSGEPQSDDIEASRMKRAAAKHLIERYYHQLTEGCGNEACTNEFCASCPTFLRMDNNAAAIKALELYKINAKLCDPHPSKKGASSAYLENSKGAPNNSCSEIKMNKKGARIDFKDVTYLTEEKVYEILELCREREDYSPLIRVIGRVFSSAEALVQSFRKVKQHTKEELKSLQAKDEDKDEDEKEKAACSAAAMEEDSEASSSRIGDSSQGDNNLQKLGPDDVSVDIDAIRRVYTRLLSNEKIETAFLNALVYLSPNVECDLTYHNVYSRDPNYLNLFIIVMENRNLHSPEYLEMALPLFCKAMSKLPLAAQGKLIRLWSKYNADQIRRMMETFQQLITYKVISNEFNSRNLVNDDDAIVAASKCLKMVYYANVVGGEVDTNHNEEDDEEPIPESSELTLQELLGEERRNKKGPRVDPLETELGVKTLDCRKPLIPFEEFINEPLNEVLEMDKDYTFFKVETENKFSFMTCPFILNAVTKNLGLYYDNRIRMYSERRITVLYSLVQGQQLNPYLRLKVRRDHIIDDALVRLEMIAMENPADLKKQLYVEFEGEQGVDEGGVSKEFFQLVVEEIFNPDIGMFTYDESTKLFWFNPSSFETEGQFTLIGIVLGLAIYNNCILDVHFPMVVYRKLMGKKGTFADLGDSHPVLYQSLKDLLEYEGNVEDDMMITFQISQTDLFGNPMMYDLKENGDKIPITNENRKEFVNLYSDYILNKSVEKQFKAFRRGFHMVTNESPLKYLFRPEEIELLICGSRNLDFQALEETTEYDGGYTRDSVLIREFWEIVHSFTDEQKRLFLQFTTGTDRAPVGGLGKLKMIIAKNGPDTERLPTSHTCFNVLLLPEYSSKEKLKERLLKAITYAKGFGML
Procedure: as §1, §2

B1: E6 protein: recombinant human papilloma virus 16 E6 protein, 158 amino acids (protein)
chain: MHQKRTAMFQDPQERPRKLPQLCTELQTTIHDIILECVYCKQQLLRREVYDFAFRDLCIVYRDGNPYAVCDKCLKFYSKISEYRHYCYSLYGTTLEQQYNKPLCDLLIRCINCQKPLCPEEKQRHLDKKQRFHNIRGRWTGRCMSCCRSSRTRRETQL
Question: What does the source list for B1?
Answer: effect on rate (E6APD543A): no enhancement in rate; increase in rate (E6APR626A): 13 fold
